Test results taken from patent US20060199768A1.

Biological target: RecA protein (E. coli)

RecA N-30 (peptide) was tested, and the I50, ATPase activity of the RecA NPF was 600 µM.
